Primed or numbered codes have the meaning given here. Where no end group is shown, it is not given here. FITC′ = fluorescein
T1: MBP-tagged Methanocaldococcus jannaschii YcaO (Methanocaldococcus jannaschii, UniProt Q58494 1-385)
T1 sequence (looked up): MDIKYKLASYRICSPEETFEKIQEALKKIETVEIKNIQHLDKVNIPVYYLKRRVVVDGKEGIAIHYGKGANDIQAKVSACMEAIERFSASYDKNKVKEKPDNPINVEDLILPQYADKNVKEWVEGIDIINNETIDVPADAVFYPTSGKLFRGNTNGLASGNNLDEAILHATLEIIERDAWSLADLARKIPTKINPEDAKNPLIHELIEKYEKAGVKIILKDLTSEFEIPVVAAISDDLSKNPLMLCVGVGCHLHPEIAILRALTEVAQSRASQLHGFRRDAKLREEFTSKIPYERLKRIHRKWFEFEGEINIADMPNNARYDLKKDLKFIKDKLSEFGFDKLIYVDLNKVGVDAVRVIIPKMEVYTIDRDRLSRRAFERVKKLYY


Assays:
M. acetivorans TfuA = details: FP; 25 °C, 1 h; ref Mahanta et al., 2018; cited from earlier work
[1] = target: FITC-labeled M. acetivorans McrA 13-mer peptide (GG-…) (Methanosarcina acetivorans); assay: fluorescence polarisation
MjYcaO = details: cited from earlier work
[2] = target: MBP-tagged Methanosarcina acetivorans YcaO (Methanosarcina acetivorans); assay: fluorescence polarisation
[3] = target: T1, MBP-tagged Methanocaldococcus …; assay: fluorescence polarisation

fold reduction of affinity against the wild-type peptide [2] [fold]	Molecule	also measured
–	GG-RLGFFGFDLQD [native McrA peptide]	binding (M. acetivorans TfuA): not detected
–	MBP-tagged Methanosarcina acetivorans YcaO (enzyme)	Kd [1]: 700 nM
–	Nc1ncnc2c1ncn2[C@@H]1O[C@H](COP(=O)(O)OP(=O)(O)OP(=O)(O)O)[C@@H](O)[C@H]1O [ATP]	ATP-derived by-products of thioamidation (MjYcaO; 31P NMR, YcaO-catalyzed thioamidation, ref Mahanta et al., 2018): ADP and phosphate (Pi) were found to be the by-products; ATP hydrolysis in the absence of the McrA peptide substrate (MjYcaO; absence of McrA peptide, ref Dong et al., 2019): YcaO can hydrolyze ATP to ADP and Pi unproductively
14	RLAFFGFDLQD [MBP-tagged McrA peptide, Ala substitution of Gly462]	–
14	RLGFFGFDAQD [MBP-tagged McrA peptide, Ala substitution of Leu468]	–
24	RLGFFGFDLAD [MBP-tagged McrA peptide, Ala substitution of Gln469]	–
11	RLGFAGFDLQD [MBP-tagged McrA peptide, Ala substitution of Phe464]	–
–	{FITC′}-GGRLGFYGYDLQD [FITC-labeled M. jannaschii McrA 13-mer peptide (GG-RLGFYGYDLQD)]	Kd [3]: 1100 nM
12	RLGFFGFALQD [MBP-tagged McrA peptide, Ala substitution of Asp467]	–
28	RAGFFGFDLQD [MBP-tagged McrA peptide, Ala substitution of Leu461]	–
–	RLGFFGFDLQD [wild-type MBP-tagged McrA peptide (M. acetivorans McrA 11-mer)]	Ki [2]: 700 nM
14	RLGFFAFDLQD [MBP-tagged McrA peptide, Ala substitution of Gly465]	–

Reference: paper PMC8328229 (Methods in enzymology, 2021)
